Data as given in CN111732659A.
Blank lines part the entries; values can stand above or below the molecule they belong to.

What was measured:
[1] = target: GPC3ΔGPI-FLAG重组蛋白 (Homo sapiens (Human)) (UniProt P51654); assay: ELISA on coated GPC3ΔGPI-FLAG after serum incubation of the antibody
[2] = target: mCherry-GPC3 (stably expressed on HEK293T cells) (UniProt P51654); assay: immunofluorescence colocalisation on HEK293T cells expressing mCherry-GPC3, confocal microscopy

decrease of antigen binding (ELISA OD450) after 72 h at 37°C in FBS against 0 h [1]: 55.5%
Molecule: HN3-hFc融合抗体 (Fc fusion)

decrease of antigen binding (ELISA OD450) after 72 h at 37°C in FBS against 0 h [1]: 0.6%
皮尔森相关系数 (mCherry and Alexa Fluor 488 signals) [2]: 0.803
B1: 纳米抗体G64 (G64-His) (VHH, not shown: small tags and cut ends)
VHH: QVQLVESGGALVQPGGSLRLSCAASGRGADTLSLRWYRQAPGKEREWVCGISWLMTTYSYEDSVKGRFTCSRDDARNTVYLQLNSLKPEDTAVYYCASRPRFLEEQLQVSSYWGQGTQVTVSS
